Measurements as given in US20070254313A1, “Gnal Splice Variant and Uses Thereof” (AstraZeneca AB, priority 2003, published 2007).

Legend:
Assay in all cases: cell-based or functional assay
[1] = target: human adenosine A2a receptor (ADORA2A) (human) (UniProt P29274)
[2] = target: human dopamine D1A receptor (human) (UniProt P21728)
[3] = target: human β2 adrenergic receptor (human) (UniProt P07550)

Chain of human adenosine A2a receptor (ADORA2A) (human) (P29274 whole entry): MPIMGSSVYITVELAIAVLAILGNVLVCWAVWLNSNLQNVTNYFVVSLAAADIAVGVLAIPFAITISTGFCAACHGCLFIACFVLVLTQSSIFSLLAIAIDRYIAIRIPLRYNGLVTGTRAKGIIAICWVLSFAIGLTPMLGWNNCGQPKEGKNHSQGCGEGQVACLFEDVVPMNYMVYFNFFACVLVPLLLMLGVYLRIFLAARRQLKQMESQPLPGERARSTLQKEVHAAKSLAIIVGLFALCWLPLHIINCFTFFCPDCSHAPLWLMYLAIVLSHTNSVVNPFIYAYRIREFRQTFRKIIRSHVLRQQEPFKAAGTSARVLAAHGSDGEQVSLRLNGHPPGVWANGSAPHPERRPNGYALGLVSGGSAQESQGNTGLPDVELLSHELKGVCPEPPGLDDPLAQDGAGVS
Chain of human dopamine D1A receptor (human) (P21728 whole entry): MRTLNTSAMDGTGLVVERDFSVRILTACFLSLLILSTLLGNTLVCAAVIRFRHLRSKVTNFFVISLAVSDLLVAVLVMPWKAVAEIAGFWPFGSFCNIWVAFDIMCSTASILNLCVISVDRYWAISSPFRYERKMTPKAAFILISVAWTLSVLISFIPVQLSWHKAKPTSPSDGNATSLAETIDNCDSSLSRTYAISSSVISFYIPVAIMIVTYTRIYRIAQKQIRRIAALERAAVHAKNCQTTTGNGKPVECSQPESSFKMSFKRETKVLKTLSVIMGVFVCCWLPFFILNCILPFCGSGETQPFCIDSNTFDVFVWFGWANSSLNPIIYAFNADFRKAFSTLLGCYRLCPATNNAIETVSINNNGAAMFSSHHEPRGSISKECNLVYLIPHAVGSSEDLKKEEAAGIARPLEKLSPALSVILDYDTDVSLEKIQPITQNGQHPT

induction of GTPγS agonist signal over baseline, A2a receptor co-expressed with XLGolf in Sf9 cells [1]: 3 fold | efficacy (Emax) of dopamine-induced [35S]-GTPγS binding, membranes of Sf9 cells co-expressing DRD1 and XLGolf [2]: 404% | magnitude of (-)-isoproterenol-induced GTPγS binding above the baseline, membranes of Sf9 cells expressing β2 receptor and XLGolf (% above the baseline) [3]: 700
B1: human XLGolf protein (protein)
chain: MGLCYSLRPLLFGGPGDDPCAASEPPVEDAQPAPAPALAPVRAAARDTARTLLPRGGEGSPACARPKADKPKEKRQRTEQLSAEEREAAKEREAVKEARKVSRGIDRMLRDQKRDLQQTHRLLLLGAGESGKSTIVKQMRILHVNGFNPEEKKQKILDIRKNVKDAIVTIVSAMSTIIPPVPLANPENQFRSDYIKSIAPITDFEYSQEFFDHVKKLWDDEGVKACFERSNEYQLIDCAQYFLERIDSVSLVDYTPTDQDLLRCRVLTSGIFETRFQVDKVNFHMFDVGGQRDERRKWIQCFNDVTAIIYVAACSSYNMVIREDNNTNRLRESLDLFESIWNNRWLRTISIILFLNKQDMLAEKVLAGKSKIEDYFPEYANYTVPEDATPDAGEDPKVTRAKFFIRDLFLRISTATGDGKHYCYPHFTCAVDTENIRRVFNDCRDIIQRMHLKQYELL
